Test results from paper PMC7719173.

Molecular target: human TRAPPII complex (TRAPPC1, TRAPPC2, TRAPPC2L, TRAPPC3, TRAPPC4, TRAPPC5, TRAPPC6A, TRAPPC9, TRAPPC10) (human) (UniProt Q9Y5R8)

catalytic efficiency (kcat/Km) of TRAPPII-catalysed release of Mant-GDP from 4 µM Rab-His6 in solution, TRAPPII 19–300 nM: 2900 M⁻¹ s⁻¹
Substance: Rab11 (from UniProt P62491 1-216) (natural protein)
